Experimental data from patent US20140154243A1 (Amgen, published 2014).

Legend:
[1] = target: T1, human hepatocyte growth factor (HGF) (human, UniProt P14210 32-728); assay: cell-based or functional assay
[2] = target: human HGF-avidin fusion protein with the point mutation hHGFD592N (chicken; human, UniProt P02701 25-152; P14210 32-728, limits assumed); assay: avidin fusion protein captured on biotin-coated beads, PE anti-human F(ab')2, FACS
Experimental: (§1) These constructs were expressed and subjected to binding analysis as described in Examples 8C and 8D. […] The resulting bead-protein complexes were labeled by adding FITC labeled anti-avidin antibody (Vector Lab, Burlingame, Calif., Cat. # SP-2040). The presence of antibodies to HGF was determined by adding phycoerythrin (PE) labeled goat anti-human F(ab′)2 antibody (Southern Biotech Associates, Inc, Birmingham, Ala., Cat #2043-09). Those samples were then subjected to Fluorescence Activated Cell Sorter (FACS) analysis. Bead complexes labeled by FITC (which indicated the presence of avidin) and/or PE (which indicated the presence of antibody to HGF) were detected on a Becton Dickinson Bioscience FACScan (BD, Franklin Lakes, N.J.). In some cases, after expression normalization using FITC, single-color FACS analysis was performed following antibody binding by the PE label. This method increased the sensitivity of the assay and aided the measurement of binding with constructs that were not expressed at very high levels.

[3] = target: human HGF-avidin fusion protein with the point mutation hHGFC561R (chicken; human, UniProt P02701 25-152; P14210 32-728, limits assumed); assay: as above
Experimental: as §1

[4] = target: human HGF-avidin fusion protein with the point mutation hHGFG555E (chicken; human, UniProt P02701 25-152; P14210 32-728, limits assumed); assay: as above
Experimental: as §1

[5] = target: human HGF-avidin fusion protein with the point mutation hHGFR647Q (chicken; human, UniProt P02701 25-152; P14210 32-728, limits assumed); assay: as above
Experimental: as §1

[6] = target: human HGF-avidin fusion protein with the point mutation hHGFN601S (chicken; human, UniProt P02701 25-152; P14210 32-728, limits assumed); assay: as above
Experimental: as §1

[7] = target: T2, human HGF-avidin fusion protein with a two amino acid insertion (mouse amino acids 540N and 541K) (chicken; human, UniProt P02701 25-152; P14210 32-728, limits assumed); assay: as above
T2 construct: also called hHGF DK insertion
Experimental: as §1

[8] = target: T1, human hepatocyte growth factor (HGF); assay: BIAcore 3000, kinetic method: antibody captured on immobilized Protein G, human HGF (0-100 nM) injected
From the text: The running buffer for those analyses was PBS with 0.005% P20 surfactant (BIAcore, Inc. Piscataway, N.J.). Recombinant Protein G (Pierce, Rockford, Ill.) was immobilized to a research grade CM5 sensor chip (Biacore, Inc. Piscataway, N.J.) via primary amine groups using the Amine Coupling Kit (Biacore, Inc. Piscataway, N.J.), according to the manufacturer's instructions.
In six separate samples, about 200 resonance units (RU) of each of the six antibodies to HGF was separately attached to immobilized Protein G following the manufacturer's instructions. Samples comprising various concentrations (0-100 nM) of human HGF were injected over the bound antibody surface at a flow rate of 50 μl/min for 3 minutes. Antibody binding kinetic parameters including kₐ (association rate constant), kd (dissociation rate constant), and KD (dissociation equilibrium constant) were determined using the BIA evaluation 3.1 computer program (BIAcore, Inc. Piscataway, N.J.). Lower dissociation equilibrium constants indicate greater affinity of the antibody for HGF.

[9] = target: T1, human hepatocyte growth factor (HGF); assay: BIAcore 3000, equilibrium/solution method: antibody (0.01-50 nM) incubated with human HGF (0.05 nM and 1 nM), free HGF measured on a chip carrying the same antibody
Experimental: That method was performed with a BIAcore®3000 (Biacore, Inc., Piscataway, N.J.) using PBS with 0.005% P20 surfactant (BIAcore, Inc. Piscataway, N.J.) as running buffer. The four antibodies to HGF were separately immobilized to research grade CM5 sensor chips (Biacore, Inc. Piscataway, N.J.) via primary amine groups using an Amine Coupling Kit (Biacore, Inc. Piscataway, N.J.) following the manufacturer's instructions.
In separate assays, each of the four antibodies to HGF, over a range of concentrations (from 0.01 nM to 50 nM) was separately incubated with each of two different concentrations (0.05 nM and 1 nM) of human HGF in PBS with 0.005% P-20 and 0.1 mg/mL BSA at room temperature for at least six hours. Each of those samples was then injected over a surface of a CM5 sensor chip onto which the same antibody to HGF had been immobilized. The binding signal obtained was proportional to the free HGF in solution. The dissociation equilibrium constant (KD) was obtained from nonlinear regression analysis of the competition curves using a dual-curve one-site homogeneous binding model (KinExA software, Sapidyne Instruments Inc., Boise Id.).

T1 sequence (P14210 32-728 limits assumed): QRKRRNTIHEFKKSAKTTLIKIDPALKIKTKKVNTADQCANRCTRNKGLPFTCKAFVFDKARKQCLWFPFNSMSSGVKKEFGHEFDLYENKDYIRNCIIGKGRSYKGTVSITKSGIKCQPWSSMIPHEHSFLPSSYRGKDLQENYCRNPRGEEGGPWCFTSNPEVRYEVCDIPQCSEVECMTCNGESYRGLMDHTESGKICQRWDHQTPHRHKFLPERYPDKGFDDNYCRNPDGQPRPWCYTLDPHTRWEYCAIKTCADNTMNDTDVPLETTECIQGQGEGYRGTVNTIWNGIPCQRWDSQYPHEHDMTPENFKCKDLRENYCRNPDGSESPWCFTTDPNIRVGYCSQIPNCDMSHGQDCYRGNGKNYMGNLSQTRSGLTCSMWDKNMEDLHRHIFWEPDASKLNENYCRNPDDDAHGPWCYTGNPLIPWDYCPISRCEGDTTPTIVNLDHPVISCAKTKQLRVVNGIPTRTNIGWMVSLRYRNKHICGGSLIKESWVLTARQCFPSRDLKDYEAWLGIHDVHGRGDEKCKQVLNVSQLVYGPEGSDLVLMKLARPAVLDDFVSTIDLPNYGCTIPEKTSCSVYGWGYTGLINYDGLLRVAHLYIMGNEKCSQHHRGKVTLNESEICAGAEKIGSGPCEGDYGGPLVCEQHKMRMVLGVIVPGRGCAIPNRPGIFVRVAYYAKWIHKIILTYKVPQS
Sequence of human HGF-avidin fusion protein with the point mutation hHGFR647Q (P02701 other isoform, or with tags, fused parts or gaps limits assumed): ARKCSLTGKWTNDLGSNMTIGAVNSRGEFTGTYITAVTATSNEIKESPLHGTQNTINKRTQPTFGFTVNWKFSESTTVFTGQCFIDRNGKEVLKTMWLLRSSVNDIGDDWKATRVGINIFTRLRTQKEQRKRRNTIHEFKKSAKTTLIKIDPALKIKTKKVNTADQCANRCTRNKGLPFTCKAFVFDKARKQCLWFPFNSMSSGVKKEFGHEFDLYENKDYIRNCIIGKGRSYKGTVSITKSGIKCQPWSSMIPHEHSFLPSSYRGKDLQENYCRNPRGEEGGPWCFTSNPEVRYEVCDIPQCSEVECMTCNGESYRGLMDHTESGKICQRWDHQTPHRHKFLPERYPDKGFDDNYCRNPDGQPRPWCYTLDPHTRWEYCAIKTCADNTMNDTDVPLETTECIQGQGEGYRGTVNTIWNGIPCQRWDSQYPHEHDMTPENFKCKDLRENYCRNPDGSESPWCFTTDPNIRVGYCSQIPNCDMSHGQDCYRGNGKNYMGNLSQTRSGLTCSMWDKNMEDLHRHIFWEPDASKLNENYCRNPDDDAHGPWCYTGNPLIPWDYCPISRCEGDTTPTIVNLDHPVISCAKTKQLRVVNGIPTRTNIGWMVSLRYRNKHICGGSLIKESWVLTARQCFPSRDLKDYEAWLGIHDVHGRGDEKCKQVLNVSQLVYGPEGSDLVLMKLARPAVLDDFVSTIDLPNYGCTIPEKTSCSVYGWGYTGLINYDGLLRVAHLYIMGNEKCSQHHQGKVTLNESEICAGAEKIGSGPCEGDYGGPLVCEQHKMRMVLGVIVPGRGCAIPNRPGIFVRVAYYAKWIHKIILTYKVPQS
T2 sequence (P02701 other isoform, or with tags, fused parts or gaps limits assumed): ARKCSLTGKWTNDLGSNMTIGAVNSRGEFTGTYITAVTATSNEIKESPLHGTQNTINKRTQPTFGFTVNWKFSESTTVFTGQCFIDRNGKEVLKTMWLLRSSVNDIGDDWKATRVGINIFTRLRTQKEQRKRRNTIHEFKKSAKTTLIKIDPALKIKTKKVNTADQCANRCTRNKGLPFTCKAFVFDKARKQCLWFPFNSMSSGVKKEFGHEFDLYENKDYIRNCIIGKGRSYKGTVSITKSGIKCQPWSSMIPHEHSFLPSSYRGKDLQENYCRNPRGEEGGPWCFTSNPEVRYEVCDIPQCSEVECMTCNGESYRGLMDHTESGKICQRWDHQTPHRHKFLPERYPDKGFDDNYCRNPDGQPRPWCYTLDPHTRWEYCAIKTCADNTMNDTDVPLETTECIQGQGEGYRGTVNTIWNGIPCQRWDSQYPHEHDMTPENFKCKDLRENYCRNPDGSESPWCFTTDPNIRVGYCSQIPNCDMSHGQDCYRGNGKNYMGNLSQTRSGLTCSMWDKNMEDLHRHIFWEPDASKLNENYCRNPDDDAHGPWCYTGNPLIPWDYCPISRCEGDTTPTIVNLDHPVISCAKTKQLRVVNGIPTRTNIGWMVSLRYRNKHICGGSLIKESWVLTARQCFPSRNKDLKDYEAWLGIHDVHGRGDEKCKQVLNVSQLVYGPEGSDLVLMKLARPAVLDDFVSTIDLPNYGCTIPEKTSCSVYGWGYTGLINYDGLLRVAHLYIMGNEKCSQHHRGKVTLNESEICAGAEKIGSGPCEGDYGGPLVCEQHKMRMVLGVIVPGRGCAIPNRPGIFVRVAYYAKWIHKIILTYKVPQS
Sequence of human HGF-avidin fusion protein with the point mutation hHGFN601S (P02701 other isoform, or with tags, fused parts or gaps limits assumed): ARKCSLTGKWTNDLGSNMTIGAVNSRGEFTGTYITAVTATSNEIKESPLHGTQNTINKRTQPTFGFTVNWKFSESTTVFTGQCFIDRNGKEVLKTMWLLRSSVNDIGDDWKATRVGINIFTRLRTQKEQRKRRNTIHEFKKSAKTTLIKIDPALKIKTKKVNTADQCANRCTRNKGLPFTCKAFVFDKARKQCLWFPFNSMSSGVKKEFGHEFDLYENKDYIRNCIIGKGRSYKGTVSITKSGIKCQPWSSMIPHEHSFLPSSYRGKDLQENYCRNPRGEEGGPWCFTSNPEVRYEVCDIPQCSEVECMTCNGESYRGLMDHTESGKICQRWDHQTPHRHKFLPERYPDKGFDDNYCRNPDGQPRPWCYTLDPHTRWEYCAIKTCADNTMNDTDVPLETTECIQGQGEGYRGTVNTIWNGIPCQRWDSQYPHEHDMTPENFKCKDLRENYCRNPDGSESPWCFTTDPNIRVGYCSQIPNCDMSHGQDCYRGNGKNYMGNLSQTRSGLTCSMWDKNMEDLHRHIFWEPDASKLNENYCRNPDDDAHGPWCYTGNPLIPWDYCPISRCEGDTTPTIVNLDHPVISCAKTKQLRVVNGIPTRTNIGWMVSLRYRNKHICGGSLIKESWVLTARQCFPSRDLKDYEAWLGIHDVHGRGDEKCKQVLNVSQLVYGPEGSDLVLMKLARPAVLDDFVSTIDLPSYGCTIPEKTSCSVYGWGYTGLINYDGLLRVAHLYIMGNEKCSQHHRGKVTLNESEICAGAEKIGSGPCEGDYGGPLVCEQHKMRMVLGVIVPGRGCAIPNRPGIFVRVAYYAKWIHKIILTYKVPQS
Sequence of human HGF-avidin fusion protein with the point mutation hHGFC561R (P02701 other isoform, or with tags, fused parts or gaps limits assumed): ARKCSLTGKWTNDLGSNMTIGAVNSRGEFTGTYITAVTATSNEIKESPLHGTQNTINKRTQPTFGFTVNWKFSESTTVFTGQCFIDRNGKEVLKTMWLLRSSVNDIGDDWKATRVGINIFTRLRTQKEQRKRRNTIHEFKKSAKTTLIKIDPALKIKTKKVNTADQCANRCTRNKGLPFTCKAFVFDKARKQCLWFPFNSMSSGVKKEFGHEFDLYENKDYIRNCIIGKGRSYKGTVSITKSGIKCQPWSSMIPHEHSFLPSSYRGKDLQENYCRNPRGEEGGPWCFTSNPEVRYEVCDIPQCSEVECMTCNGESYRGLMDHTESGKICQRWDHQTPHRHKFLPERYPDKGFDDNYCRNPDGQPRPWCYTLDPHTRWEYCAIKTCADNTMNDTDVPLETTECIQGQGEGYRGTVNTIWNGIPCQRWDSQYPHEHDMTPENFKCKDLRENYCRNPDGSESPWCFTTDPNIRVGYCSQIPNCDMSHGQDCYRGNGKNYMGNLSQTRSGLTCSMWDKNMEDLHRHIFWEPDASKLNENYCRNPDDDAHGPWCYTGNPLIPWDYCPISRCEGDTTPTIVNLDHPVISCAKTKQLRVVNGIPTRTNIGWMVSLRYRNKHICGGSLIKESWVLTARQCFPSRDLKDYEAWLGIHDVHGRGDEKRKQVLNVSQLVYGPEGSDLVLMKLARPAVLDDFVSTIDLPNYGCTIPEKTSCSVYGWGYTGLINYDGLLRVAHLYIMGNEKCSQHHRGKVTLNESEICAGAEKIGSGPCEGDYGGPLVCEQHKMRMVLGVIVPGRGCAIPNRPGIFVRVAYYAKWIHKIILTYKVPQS
Sequence of human HGF-avidin fusion protein with the point mutation hHGFG555E (P02701 other isoform, or with tags, fused parts or gaps limits assumed): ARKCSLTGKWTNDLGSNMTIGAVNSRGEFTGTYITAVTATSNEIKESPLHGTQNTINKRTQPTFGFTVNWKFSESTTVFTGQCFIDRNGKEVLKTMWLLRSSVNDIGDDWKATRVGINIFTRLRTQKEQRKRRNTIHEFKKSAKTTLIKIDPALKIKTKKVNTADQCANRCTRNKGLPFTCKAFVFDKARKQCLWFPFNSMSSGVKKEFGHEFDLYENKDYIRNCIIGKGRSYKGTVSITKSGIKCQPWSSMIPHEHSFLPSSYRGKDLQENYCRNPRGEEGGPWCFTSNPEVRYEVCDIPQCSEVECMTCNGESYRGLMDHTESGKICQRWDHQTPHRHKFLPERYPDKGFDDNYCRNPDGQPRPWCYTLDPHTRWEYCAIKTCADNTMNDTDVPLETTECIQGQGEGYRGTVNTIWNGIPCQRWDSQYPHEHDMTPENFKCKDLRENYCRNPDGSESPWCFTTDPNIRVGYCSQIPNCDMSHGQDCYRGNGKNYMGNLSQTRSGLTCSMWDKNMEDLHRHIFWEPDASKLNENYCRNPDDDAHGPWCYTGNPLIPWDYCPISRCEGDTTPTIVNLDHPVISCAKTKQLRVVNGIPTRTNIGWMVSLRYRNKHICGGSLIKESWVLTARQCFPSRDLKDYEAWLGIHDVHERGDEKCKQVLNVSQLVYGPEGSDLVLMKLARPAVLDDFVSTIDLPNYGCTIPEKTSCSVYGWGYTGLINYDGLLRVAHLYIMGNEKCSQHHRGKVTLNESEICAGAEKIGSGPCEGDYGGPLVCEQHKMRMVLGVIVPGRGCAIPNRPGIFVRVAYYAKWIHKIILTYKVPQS

Row | binding result [2] | binding result [3] | binding result [4] | binding result [5] | binding result [6] | binding result [7] | Kd [8] [pM] | koff [8] [s⁻¹] | kon [8] [M⁻¹ s⁻¹] | Kd [9] [pM] | Binder | IC50, inhibition of growth/survival of U-87 MG cells [1] [pM]
1 | binds | no binding | binds | binds | binds | no binding | ~99 | 2.7e-05 | 270000 | < 10 | antibody 2.4.4 (antibody, human IgG2, kappa, V domains shown, also called FITC-labeled antibody 2.4.4) VH: QVQLKESGPGLVKPSQTLSLTCTVSGGSISSGVYYWSWIRQHPGKGLEWIGYFYYSGNTYHNPSLKSRVTISVDTSKNQFSLKLSSVTAADTAVYYCARDRSGYDHPDAFDIWGQGTMVTVSS VL: not shown | < 100000
2 | binds | no binding | no binding | binds | binds | no binding | ~220 | 2.8e-05 | 130000 | 54 | antibody 2.12.1 (antibody, human IgG2, kappa, V domains shown) VH: QVQLQESGPGLVKPSETLSLTCTVSGGSISIYYWSWIRQPPGKGLEWIGYVYYSGSTNYNPSLKSRVTISVDTSKNQFSLKLNSVTAADTAVYYCARGGYDFWSGYFDYWGQGTLVTVSS VL: not shown | < 100000
